{
  "source": "patent US20250205308A1",
  "about": "“Supraparticles” (THE BIONICS INSTITUTE OF AUSTRALIA, priority 2017, published 2025)",
  "experiment": "In vivo clearance of radiolabelled neurotrophin-3 from the cochlea after supraparticle implantation (whole cochlear gamma counts)",
  "protocol": "In vivo studies were carried out to determine the drug payload and clearance of neurotrophin delivered in a supraparticle implanted into the ear after 4 hr, 3 day and 7 days of implantation. The objective was to determine the amount of neurotrophin remaining in the cochlea over time.\n1 SP containing radiolabelled neurotrophin-3 was implanted into each cochlea. Cochleae were harvested following 4 hrs (n=5), 3d (n=7) or 7d (n=4). Whole cochlear gamma counts were measured to determine the clearance of neurotrophin-3 over time. After 1 week of implantation each SP contained ˜2 μg of neurotrophin-3 (˜40%) of initial loaded amount.\nFurther experiments (n=2) were carried out to examine clearance of neurotrophin-3 following round window delivery. 3 days after implantation-whole cochlear measurements were again used to determine the clearance of neurotrophin-3 from the round window membrane.",
  "key": {"[1]": {"settings": "1 SP implanted into each cochlea, after 1 week of implantation"}},
  "data": [
    {"substance": "neurotrophin-3: Radiolabelled neurotrophin delivered in a supraparticle implanted into the cochlea", "values": [
      {"measurement": "neurotrophin-3 remaining (% of initial loaded amount)", "setting": "[1]", "value": "~40", "unit": "%"},
      {"measurement": "neurotrophin-3 remaining per SP", "setting": "[1]", "value": "~2", "unit": "µg"},
      {"measurement": "neurotrophin-3 remaining", "setting": "intracochlear delivery, 3 days", "value": 56, "unit": "%"},
      {"measurement": "neurotrophin-3 remaining", "setting": "round window delivery, 3 days after implantation", "value": 47.4, "unit": "%"}
    ]}
  ]
}
